Our source for the Kd and fraction bound values is PMC4908164.

In general, Kd refers to the equilibrium constant for the complex coming apart.

The target of test [1] is Yeast cytochrome c peroxidase C128A with MSKT as the first four N-terminal residues (yeast) (UniProt P00431). Put plainly: paramagnetic relaxation enhancement NMR; intermolecular PRE: 200 uM [15N,2H] CcP WT (C128A) with 200 uM unlabelled MTSL- or MTS-tagged N38C, N200C or T288C CcP; 20 mM NaPi, 100 mM NaCl, pH 6.0, 293 K; fraction bound and KD estimated from PRE-driven ensemble docking with an assumed correlation time of 45 ns.

In test [2] the target is cytochrome c peroxidase (Saccharomyces cerevisiae) (UniProt P00431). The following applies: cited from earlier work.

cytochrome c, sequence (P00044 2-109): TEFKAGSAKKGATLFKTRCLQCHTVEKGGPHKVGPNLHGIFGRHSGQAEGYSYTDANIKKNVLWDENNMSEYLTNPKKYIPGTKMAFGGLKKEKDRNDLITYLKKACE

Regarding “Yeast cytochrome c peroxidase C128A N38C tagged with MTSL (or diamagnetic MTS) at C38 (from UniProt P00431 71-361) (enzyme)”, in test [1], the Kd is 360 µM and the fraction bound was 0.4. Regarding “Yeast cytochrome c peroxidase C128A T288C tagged with MTSL (or diamagnetic MTS) at C288 (from UniProt P00431 71-361) (enzyme)”, in test [1], the dissociation constant Kd was 360 µM and the fraction bound is 0.4. Take cytochrome c (from UniProt P00044): the equilibrium dissociation constant (Kd) in test [2] is 5 µM. “Yeast cytochrome c peroxidase C128A N200C tagged with MTSL (or diamagnetic MTS) at C200 (from UniProt P00431 71-361) (enzyme)”: in test [1], the dissociation constant (Kd) is 360 µM and the fraction bound is 0.4.
